The target in experiment [1] is PD-1 expressed on Jurkat cells (NFAT-luc2/PD-1 Jurkat Cells, Promega, CS187102) (UniProt Q15116 25-288, limits assumed). The experiment in a line: cell-based or functional assay.
Experiment [2] concerns the target T1, cynomolgus monkey PD-1-rCD4 (cynomolgus monkey; rat). The experiment in a line: SPR, ratio of KD values, Table 2. (SPR reads the build-up and loss of mass on a sensor chip optically.)
Experiment [3] has as its target T1, cynomolgus monkey PD-1-rCD4. The experiment in a line: SPR (BIAcore T100), IgG2 captured on anti-human Fc, PD-1 injected, 1:1 fit.
The target in experiment [4] is T2, human PD-1-rCD4 (human; rat, UniProt Q15116 25-170; P05540 207-392, limits assumed).
T2 construct: Analyte in SPR
T2 sequence (Q15116 other isoform, or with tags, fused parts or gaps limits assumed): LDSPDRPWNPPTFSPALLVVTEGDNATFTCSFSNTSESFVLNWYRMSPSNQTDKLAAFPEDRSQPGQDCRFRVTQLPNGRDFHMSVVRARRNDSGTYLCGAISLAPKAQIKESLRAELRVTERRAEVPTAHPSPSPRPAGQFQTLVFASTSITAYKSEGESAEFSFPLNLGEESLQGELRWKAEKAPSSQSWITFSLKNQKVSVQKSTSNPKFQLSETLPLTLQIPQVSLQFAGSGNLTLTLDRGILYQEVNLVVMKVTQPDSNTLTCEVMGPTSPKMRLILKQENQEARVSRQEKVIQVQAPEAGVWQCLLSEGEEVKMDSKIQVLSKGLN
Described as above.

Experiment [5] concerns the target T3, PD-1-Fc (UniProt Q15116 25-167, limits assumed).
T3 construct: not shown: Fc part, detected with anti-human IgG Fc
The experiment in a line: competition ELISA: PD-1-Fc (0.8 nM) premixed with 1 nM antibody, added to captured PD-L1-rCD4 (competitor).

The target in experiment [6] is T3, PD-1-Fc. Briefly: competition ELISA: PD-1-Fc (0.8 nM) premixed with 8 nM antibody, added to captured PD-L1-rCD4 (competitor).
The target of experiment [7] is T3, PD-1-Fc. Briefly: competition ELISA: PD-1-Fc (0.8 nM) premixed with 0.5 nM antibody, added to captured PD-L1-rCD4 (competitor). (An ELISA detects its analyte on a solid surface through an enzyme-linked reagent.)
In the next experiment the target is T4, mouse PD-1 (mouse, UniProt Q02242 25-167, limits assumed).
T4 construct: also called murine PD-1
T4 sequence (looked up): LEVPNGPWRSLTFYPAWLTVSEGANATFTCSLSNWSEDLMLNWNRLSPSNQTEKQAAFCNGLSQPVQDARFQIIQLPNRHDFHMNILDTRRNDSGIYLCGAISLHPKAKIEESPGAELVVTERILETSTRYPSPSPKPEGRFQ
The experiment in a line: SPR (BIAcore T100), IgG2 captured on anti-human Fc, PD-1 injected, 1:1 fit.

Experiment [8] deals with T2, human PD-1-rCD4. Briefly: SPR (BIAcore T100), IgG2 captured on anti-human Fc, PD-1 injected, 1:1 fit; Table 1 prints 3.8.
For experiment [9], the target named is T1, cynomolgus monkey PD-1-rCD4. The experiment in a line: SPR (BIAcore T100), IgG2 captured on anti-human Fc, PD-1 injected, 1:1 fit; Table 1 prints 8.7.

Substitutions are numbered along the chain they refer to.

3 molecules from patent WO2018087143A2 (dated 2018) can be followed below.

T1 sequence (P05540 207-392): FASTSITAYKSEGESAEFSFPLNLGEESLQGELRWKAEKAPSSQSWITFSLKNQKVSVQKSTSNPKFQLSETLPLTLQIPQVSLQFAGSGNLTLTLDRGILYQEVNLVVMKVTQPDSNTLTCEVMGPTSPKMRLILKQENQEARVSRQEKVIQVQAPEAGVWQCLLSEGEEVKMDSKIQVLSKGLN
T3 sequence (Q15116 25-167 limits assumed): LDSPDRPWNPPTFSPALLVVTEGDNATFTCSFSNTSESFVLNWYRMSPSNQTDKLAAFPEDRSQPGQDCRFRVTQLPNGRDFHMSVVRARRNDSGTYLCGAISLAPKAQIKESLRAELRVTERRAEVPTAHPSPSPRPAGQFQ
Sequence of PD-1 expressed on Jurkat cells (NFAT-luc2/PD-1 Jurkat Cells, Promega, CS187102) (Q15116 25-288 limits assumed): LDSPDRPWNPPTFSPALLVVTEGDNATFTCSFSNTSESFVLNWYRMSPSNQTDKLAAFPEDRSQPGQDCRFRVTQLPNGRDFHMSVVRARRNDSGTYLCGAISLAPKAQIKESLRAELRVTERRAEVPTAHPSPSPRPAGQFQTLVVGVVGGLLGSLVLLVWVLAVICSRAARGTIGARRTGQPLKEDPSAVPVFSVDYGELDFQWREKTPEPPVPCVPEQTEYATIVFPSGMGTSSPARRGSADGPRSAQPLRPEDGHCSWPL

B1: 273_C01_A12 (antibody, human IgG2, kappa, V domains shown)
VH: EVQLVQSGAEVKKPGSSVKVSCKASGYTFTSYYVHWVRQAPGQGLEWMGGIIPIFGTANYAQKFQGRVTITADESISTAYMELSSLRSEDTAVYYCARDLHGYSYGYPGYWGQGTLVTVSS
VL: DIVMTQSPLSLPVTLGQPASISCRSSQSLVYSDANTYLNWFQQRPGQSPRRLIYEVSNRESGVPDRFSGSGSATDFTLKISRVEAEDVGVYYCMQGTQLPLTFGGGTKVEIKR
Turning to B1, the “EC50, NFAT-luciferase reporter activity (PD-1/PD-L1 cell reporter assay)” value in [1] was 11.7 nM. The “Fold Difference (Kd on cynomolgus PD-1 against Kd on human PD-1)” value in experiment [2] was 2.1 fold. Besides, the figures for the Kd (in experiment [3]; with human PD-1-rCD4 [4]) were 21 nM and 10 nM, respectively. Further, the koff came out at 0.0115 s⁻¹ in experiment [3] and 0.0061 s⁻¹ in the experiment with human PD-1-rCD4 [4]. The results for the kon (in experiment [3]; with human PD-1-rCD4 [4]) were 548000 M⁻¹ s⁻¹ and 606000 M⁻¹ s⁻¹, respectively. The “% inhibition of the PD-1/PD-L1 interaction” value in the experiment with PD-1-Fc [5] was ~99%; with PD-1-Fc [6], 99%; in the experiment with PD-1-Fc [7] it was ~75%.

B2: 273_C12_C05 (original clone) (antibody, human IgG2, kappa, V domains shown)
VH: B1 VH with I76T
VL: B1 VL with S32H, A34G, E60D, A73D, T97A, Q98Y, L99R, G105Q
Turning to B2, in experiment [1], the “EC50, NFAT-luciferase reporter activity (PD-1/PD-L1 cell reporter assay)” value stood at 9.35 nM. Besides, the “Fold Difference (Kd on cynomolgus PD-1 against Kd on human PD-1)” value in [2] turned out to be 2.29 fold. The Kd in experiment [3] came out at 8.7 nM; in the experiment with human PD-1-rCD4 [4] it was 3.8 nM; with mouse PD-1, 6400 nM; with human PD-1-rCD4 [8], 3.84 nM; in experiment [9] it was 8.77 nM. Besides, the koff was found to be 0.0034 s⁻¹ in experiment [3], 0.0015 s⁻¹ with human PD-1-rCD4 [4] and 0.00357 s⁻¹ with mouse PD-1. The figures for the kon (in experiment [3]; with human PD-1-rCD4 [4]) were 387000 M⁻¹ s⁻¹ and 392000 M⁻¹ s⁻¹, respectively. The “% inhibition of the PD-1/PD-L1 interaction” value is ~99% with PD-1-Fc [5], 99% with PD-1-Fc [6] and ~75% in the experiment with PD-1-Fc [7].

B3: Nivolumab (IgG2 format, as used in the experiments of the filing) (antibody, V domains shown)
VH: QVQLVESGGGVVQPGRSLRLDCKASGITFSNSGMHWVRQAPGKGLEWVAVIWYDGSKRYYADSVKGRFTISRDNSKNTLFLQMNSLRAEDTAVYYCATNDDYWGQGTLVTVSS
VL: EIVLTQSPATLSLSPGERATLSCRASQSVSSYLAWYQQKPGQAPRLLIYDASNRATGIPARFSGSGSGTDFTLTISSLEPEDFAVYYCQQSSNWPRTFGQGTKVEIKR
As for B3, in [3], binding was characterised by a dissociation constant (Kd) of 5.22 nM.

By Kd is commonly meant the equilibrium constant for the complex coming apart. A word on the koff: it is the rate constant with which the complex falls apart. A word on the kon: it is the second-order rate constant of association.
